The source of these data is patent US20180177850A1 (HANMI PHARM, published 2018).

Bridges are numbered along the chain shown (N, C = ends). Where no end group is shown, it is not given here. [ ]: non-standard residue; d: D form. The star is where a group is joined. Acetyl(2-(4-imidazolyl)) = O=C(Cc1c[nH]cn1)*; Aib = CC(C)(N)C(=O)O

The chains are these.
B1: oxyntomodulin derivative of SEQ ID NO: 3 (peptide)
peptide: [Acetyl(2-(4-imidazolyl))]SQGTFTSDYSKYLDERRAQDFVAWLKNTGPSSGAPPPS
B2: oxyntomodulin derivative of SEQ ID NO: 18 (peptide)
peptide: [Acetyl(2-(4-imidazolyl))]SQGTFTSDYSRYLDEEAVRLFIEWIRNGGPSSGAPPPSK
B3: oxyntomodulin derivative of SEQ ID NO: 8 (peptide)
peptide: [Acetyl(2-(4-imidazolyl))]SQGTFTSDLSRQLEEEAVRLFIEWLMNK
B4: oxyntomodulin derivative of SEQ ID NO: 34 (peptide)
peptide: Y[Aib]QGTFTSDYSKYLDEKRAKEFVQWLMNTC
modifications: bridge 16-20
B5: oxyntomodulin derivative of SEQ ID NO: 33 (peptide)
peptide: H[Aib]QGTFTSDYAKYLDEKRAKEFVQWLMNTC
modifications: bridge 16-20
B6: oxyntomodulin derivative of SEQ ID NO: 11 (peptide)
peptide: [Acetyl(2-(4-imidazolyl))]GEGTFTSDLSRQMEEEAVRLFIEWAAHSQGTFTSDYSRYLDK
B7: oxyntomodulin derivative of SEQ ID NO: 25 (peptide)
peptide: H[Aib]QGTFTSDYSKYLDEKRAKEFVQWLMNTC
modifications: bridge 16-20
B8: oxyntomodulin derivative of SEQ ID NO: 6 (peptide)
peptide: [Acetyl(2-(4-imidazolyl))]GEGTFTSDLSRQMEEEAVRLFIEWAAHSQGTFTSDYSKYLD

human glucagon receptor (human), sequence (P47871 26-477): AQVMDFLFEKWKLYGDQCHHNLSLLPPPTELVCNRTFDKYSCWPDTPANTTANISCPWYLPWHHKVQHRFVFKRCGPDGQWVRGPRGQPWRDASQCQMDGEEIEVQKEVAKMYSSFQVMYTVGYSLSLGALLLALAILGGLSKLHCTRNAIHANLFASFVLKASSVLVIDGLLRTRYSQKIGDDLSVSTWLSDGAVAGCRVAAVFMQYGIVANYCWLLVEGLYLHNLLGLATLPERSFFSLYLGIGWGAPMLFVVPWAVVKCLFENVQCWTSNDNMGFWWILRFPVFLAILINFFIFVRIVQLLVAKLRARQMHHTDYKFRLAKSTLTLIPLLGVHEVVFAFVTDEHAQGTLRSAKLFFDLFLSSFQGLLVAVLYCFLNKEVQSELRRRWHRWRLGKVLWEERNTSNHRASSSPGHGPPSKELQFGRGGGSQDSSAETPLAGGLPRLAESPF

In one assay the target is human GLP-1 receptor (human) (UniProt P43220). Description: cell-based or functional assay.
human GLP-1 receptor (human), sequence (P43220 24-463): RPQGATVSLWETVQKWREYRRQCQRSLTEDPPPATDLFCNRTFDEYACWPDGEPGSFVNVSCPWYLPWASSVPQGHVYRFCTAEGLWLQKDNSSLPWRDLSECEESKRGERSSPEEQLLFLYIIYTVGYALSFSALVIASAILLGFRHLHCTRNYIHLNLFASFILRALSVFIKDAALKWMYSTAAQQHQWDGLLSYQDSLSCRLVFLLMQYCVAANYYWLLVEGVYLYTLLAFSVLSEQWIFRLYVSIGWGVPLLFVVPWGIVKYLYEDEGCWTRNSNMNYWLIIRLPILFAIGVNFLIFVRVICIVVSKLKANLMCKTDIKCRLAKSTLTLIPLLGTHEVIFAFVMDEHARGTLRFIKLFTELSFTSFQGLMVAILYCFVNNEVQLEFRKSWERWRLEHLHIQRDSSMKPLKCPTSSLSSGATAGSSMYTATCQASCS
On to B1, for which the EC50 (cAMP, CHO/GLP-1R) is more than 1000 nM. The same measure, in the same setting: to B2 belongs 96.3 nM. On the same count and under the same terms, next, B3: 420 nM.

The next assay addresses human glucagon receptor (human) (UniProt P47871). Description: cell-based or functional assay.
With B1, the EC50 (cAMP, CHO/GCGR) was 638 nM. Still for that read-out and setting: to B2 belongs more than 1000 nM; to B3, more than 1000 nM.

The next assay concerns the target human GLP-1 receptor (human, UniProt P43220 24-463). Description: cell-based or functional assay.
With B4, the “EC50 (cAMP, CHO/GLP-1R)” value was 12.5 nM. Take B5: the “EC50 (cAMP, CHO/GLP-1R)” value came out at 2.2 nM.

B6: the “EC50 (cAMP, CHO/GLP-1R)” value was more than 1000 nM.

In the case of B7, the “EC50 (cAMP, CHO/GLP-1R)” value turned out to be 1.9 nM.

For the next assay, the target named is human glucagon receptor (human, UniProt P47871 26-477). Description: cell-based or functional assay.
human glucagon receptor, sequence (P47871 26-477): as the sequence (P47871 26-477) above
B4: the “EC50 (cAMP, CHO/GCGR)” value was 1.04 nM. In the case of B5, the “EC50 (cAMP, CHO/GCGR)” value was found to be 80.2 nM. Still for that read-out and setting: to B6 belongs more than 1000 nM. Still for that read-out and setting: to B7 belongs 1.3 nM. Still for that read-out and setting: next, B8: more than 1000 nM.
